Target: ICP8 (Infected Cell Polypeptide 8, HSV-1 SSB) (herpes simplex virus-1, UniProt P04296 1-1196)
Experiment: thermal shift assay

ICP8 (Infected Cell Polypeptide 8, HSV-1 SSB), sequence (P04296 whole entry): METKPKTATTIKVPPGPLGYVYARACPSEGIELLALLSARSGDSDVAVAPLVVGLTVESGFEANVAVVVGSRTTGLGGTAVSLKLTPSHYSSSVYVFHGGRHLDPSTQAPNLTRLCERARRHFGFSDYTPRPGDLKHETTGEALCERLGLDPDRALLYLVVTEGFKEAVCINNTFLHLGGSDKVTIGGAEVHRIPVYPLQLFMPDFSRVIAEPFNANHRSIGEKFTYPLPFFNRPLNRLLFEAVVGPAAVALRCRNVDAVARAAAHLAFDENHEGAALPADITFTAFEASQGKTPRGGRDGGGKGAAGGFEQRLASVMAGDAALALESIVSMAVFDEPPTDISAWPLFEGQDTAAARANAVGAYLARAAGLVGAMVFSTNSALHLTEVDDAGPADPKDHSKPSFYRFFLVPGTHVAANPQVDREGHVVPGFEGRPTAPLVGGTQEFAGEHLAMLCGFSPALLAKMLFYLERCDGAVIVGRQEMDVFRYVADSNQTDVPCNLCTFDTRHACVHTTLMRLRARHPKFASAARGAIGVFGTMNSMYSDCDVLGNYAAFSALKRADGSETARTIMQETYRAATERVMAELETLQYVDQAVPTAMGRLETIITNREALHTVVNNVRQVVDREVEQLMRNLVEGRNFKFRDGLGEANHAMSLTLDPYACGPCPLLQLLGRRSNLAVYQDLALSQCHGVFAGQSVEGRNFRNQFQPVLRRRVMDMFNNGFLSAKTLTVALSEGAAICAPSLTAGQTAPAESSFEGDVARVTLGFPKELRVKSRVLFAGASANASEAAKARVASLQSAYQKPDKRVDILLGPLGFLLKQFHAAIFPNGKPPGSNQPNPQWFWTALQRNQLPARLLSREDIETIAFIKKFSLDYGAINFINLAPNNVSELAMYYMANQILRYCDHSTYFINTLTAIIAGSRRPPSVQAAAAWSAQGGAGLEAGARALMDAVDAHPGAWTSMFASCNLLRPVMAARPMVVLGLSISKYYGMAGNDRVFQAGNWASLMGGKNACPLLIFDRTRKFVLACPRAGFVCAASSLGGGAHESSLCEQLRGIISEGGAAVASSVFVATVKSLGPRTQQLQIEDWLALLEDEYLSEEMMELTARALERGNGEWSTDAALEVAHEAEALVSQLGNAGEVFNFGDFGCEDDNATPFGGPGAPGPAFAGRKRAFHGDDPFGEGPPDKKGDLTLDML

B1: (dT)20 (ssDNA)
DNA: TTTTTTTTTTTTTTTTTTTT
Q: For B1, which Kd is on record?
A: < 1000 nM

From PMC4254511
